Measurements reported in PMC10786891, “Massively parallel profiling of RNA-targeting CRISPR-Cas13d”.
Numbering of substitutions follows the chain as printed. Names and notes keep the numbering of the source.

T1: EsCas13d, nuclease-dead (Eubacterium siraeum, UniProt B0MS50, R295A;H300A;R849A;H854A)
T1 sequence: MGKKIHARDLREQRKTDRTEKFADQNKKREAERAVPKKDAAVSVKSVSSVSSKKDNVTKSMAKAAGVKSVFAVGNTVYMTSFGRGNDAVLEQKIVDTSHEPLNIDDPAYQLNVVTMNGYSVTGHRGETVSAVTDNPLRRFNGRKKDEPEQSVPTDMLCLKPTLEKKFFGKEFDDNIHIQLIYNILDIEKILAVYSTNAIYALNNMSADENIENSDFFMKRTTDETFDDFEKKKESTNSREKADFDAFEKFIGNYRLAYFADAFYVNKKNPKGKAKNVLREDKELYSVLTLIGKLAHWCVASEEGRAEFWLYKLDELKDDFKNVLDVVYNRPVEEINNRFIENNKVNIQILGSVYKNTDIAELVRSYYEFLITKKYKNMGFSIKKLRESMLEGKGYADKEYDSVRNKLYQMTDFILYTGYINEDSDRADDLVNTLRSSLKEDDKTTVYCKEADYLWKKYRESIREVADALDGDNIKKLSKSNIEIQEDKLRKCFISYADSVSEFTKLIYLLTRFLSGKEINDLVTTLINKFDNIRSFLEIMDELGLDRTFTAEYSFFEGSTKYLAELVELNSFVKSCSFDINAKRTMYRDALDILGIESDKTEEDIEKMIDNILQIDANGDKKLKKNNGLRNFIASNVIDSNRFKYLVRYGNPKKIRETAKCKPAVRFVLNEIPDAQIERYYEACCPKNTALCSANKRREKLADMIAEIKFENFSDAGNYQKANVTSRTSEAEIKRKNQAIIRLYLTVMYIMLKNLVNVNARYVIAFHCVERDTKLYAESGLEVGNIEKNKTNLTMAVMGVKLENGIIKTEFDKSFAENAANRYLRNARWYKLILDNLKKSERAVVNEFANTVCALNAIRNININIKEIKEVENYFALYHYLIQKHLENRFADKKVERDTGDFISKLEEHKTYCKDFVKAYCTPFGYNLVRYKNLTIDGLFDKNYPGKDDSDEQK

B1: target 1 MT 5'PFS GGG 3'PFS UCC (mixed)
RNA 1: CACCCGUGCAAAAAUGCAGGGGUCUAAAACUGAGCGGAUAACCUCUCUAUGG
RNA 2: GGGAAUGGAUCCACAUCUACGAAUUCGGGCCAUAGAGAGGUUAUCCGCUCAUCCAGAUCGGAAGAGCACACGU
B2: target 1 MT 5'PFS GUG 3'PFS CGA (mixed)
RNA 1: B1 RNA 1
RNA 2: B1 RNA 2 with G28U, U52C, C53G, C54A
B3: target 1 MT 5'PFS GCC 3'PFS CUA (mixed)
RNA 1: B1 RNA 1
RNA 2: B1 RNA 2 with G28C, G29C, U52C, C53U, C54A
B4: target 1 MT 5'PFS UGC 3'PFS CUA (mixed)
RNA 1: B1 RNA 1
RNA 2: B1 RNA 2 with G27U, G29C, U52C, C53U, C54A
B5: target 1 insC 3' of 20,insG 3' of 18 (mixed)
RNA 1: B1 RNA 1
RNA 2: GGGAAUGGAUCCACAUCUACGAAUUCGUACCACUAGGAGAGGUUAUCCGCUCACCGAGAUCGGAAGAGCACACGU
B6: target 1 MT 5'PFS GUG 3'PFS CGG (mixed)
RNA 1: B1 RNA 1
RNA 2: B1 RNA 2 with G28U, U52C, C53G, C54G
B7: target 1 MT 5'PFS AUG 3'PFS CUC (mixed)
RNA 1: B1 RNA 1
RNA 2: B1 RNA 2 with G27A, G28U, U52C, C53U
B8: target 1 MT 5'PFS GGC 3'PFS CCC (mixed)
RNA 1: B1 RNA 1
RNA 2: B1 RNA 2 with G29C, U52C
B9: target 1 MT 5'PFS GUG 3'PFS AGU (mixed)
RNA 1: B1 RNA 1
RNA 2: B1 RNA 2 with G28U, U52A, C53G, C54U
B10: target 1 MT 5'PFS GAA 3'PFS AUA (mixed)
RNA 1: B1 RNA 1
RNA 2: B1 RNA 2 with G28A, G29A, U52A, C53U, C54A
B11: target 1 MT 5'PFS GUG 3'PFS AGC (mixed)
RNA 1: B1 RNA 1
RNA 2: B1 RNA 2 with G28U, U52A, C53G
B12: target 1 MT 5'PFS AAG 3'PFS CGG (mixed)
RNA 1: B1 RNA 1
RNA 2: B1 RNA 2 with G27A, G28A, U52C, C53G, C54G
B13: target 1 MT 5'PFS GCA 3'PFS AGA (mixed)
RNA 1: B1 RNA 1
RNA 2: B1 RNA 2 with G28C, G29A, U52A, C53G, C54A
B14: target 1 MT 5'PFS GUG 3'PFS CGU (mixed)
RNA 1: B1 RNA 1
RNA 2: B1 RNA 2 with G28U, U52C, C53G, C54U
B15: target 1 MT 5'PFS UCA 3'PFS AAG (mixed)
RNA 1: B1 RNA 1
RNA 2: B1 RNA 2 with G27U, G28C, G29A, U52A, C53A, C54G
B16: target 1 MT 5'PFS UCA 3'PFS AAC (mixed)
RNA 1: B1 RNA 1
RNA 2: B1 RNA 2 with G27U, G28C, G29A, U52A, C53A
B17: target 1 MT 5'PFS UGG 3'PFS AGU (mixed)
RNA 1: B1 RNA 1
RNA 2: B1 RNA 2 with G27U, U52A, C53G, C54U
B18: target 1 MT 5'PFS GGG 3'PFS UCU (mixed)
RNA 1: B1 RNA 1
RNA 2: B1 RNA 2 with C54U
B19: target 1 G13A,C22U (mixed)
RNA 1: B1 RNA 1
RNA 2: B1 RNA 2 with G28U, G29A, C30U, G39A, U52C, C54G
B20: target 1 MT 5'PFS GCC 3'PFS CUC (mixed)
RNA 1: B1 RNA 1
RNA 2: B1 RNA 2 with G28C, G29C, U52C, C53U
B21: target 1 MT 5'PFS UCA 3'PFS AAA (mixed)
RNA 1: B1 RNA 1
RNA 2: B1 RNA 2 with G27U, G28C, G29A, U52A, C53A, C54A
B22: target 1 MT 5'PFS AAG 3'PFS CGA (mixed)
RNA 1: B1 RNA 1
RNA 2: B1 RNA 2 with G27A, G28A, U52C, C53G, C54A
B23: target 1 MT 5'PFS UGC 3'PFS CUG (mixed)
RNA 1: B1 RNA 1
RNA 2: B1 RNA 2 with G27U, G29C, U52C, C53U, C54G
B24: target 1 MT 5'PFS GCA 3'PFS AGG (mixed)
RNA 1: B1 RNA 1
RNA 2: B1 RNA 2 with G28C, G29A, U52A, C53G, C54G
B25: target 1 MT 5'PFS UAA 3'PFS UGC (mixed)
RNA 1: B1 RNA 1
RNA 2: B1 RNA 2 with G27U, G28A, G29A, C53G
B26: target 1 MT 5'PFS GUG 3'PFS CGC (mixed)
RNA 1: B1 RNA 1
RNA 2: B1 RNA 2 with G28U, U52C, C53G
B27: target 1 MT 5'PFS GUG 3'PFS AGG (mixed)
RNA 1: B1 RNA 1
RNA 2: B1 RNA 2 with G28U, U52A, C53G, C54G
B28: target 1 MT 5'PFS UCA 3'PFS AAU (mixed)
RNA 1: B1 RNA 1
RNA 2: B1 RNA 2 with G27U, G28C, G29A, U52A, C53A, C54U
B29: target 1 MT 5'PFS AAC 3'PFS UAU (mixed)
RNA 1: B1 RNA 1
RNA 2: B1 RNA 2 with G27A, G28A, G29C, C53A, C54U
B30: target 1 insC 3' of 17,insC 3' of 10 (mixed)
RNA 1: B1 RNA 1
RNA 2: GGGAAUGGAUCCACAUCUACGAAUUCGUACCAUAGCAGAGGUUCAUCCGCUCACCGAGAUCGGAAGAGCACACGU
B31: target 1 MT 5'PFS AGU 3'PFS AAC (mixed)
RNA 1: B1 RNA 1
RNA 2: B1 RNA 2 with G27A, G29U, U52A, C53A
B32: target 1 MT 5'PFS GUA 3'PFS UGG (mixed)
RNA 1: B1 RNA 1
RNA 2: B1 RNA 2 with G28U, G29A, C53G, C54G
B33: target 1 MT 5'PFS AGU 3'PFS AAG (mixed)
RNA 1: B1 RNA 1
RNA 2: B1 RNA 2 with G27A, G29U, U52A, C53A, C54G
B34: target 1 MT 5'PFS CUA 3'PFS UCU (mixed)
RNA 1: B1 RNA 1
RNA 2: B1 RNA 2 with G27C, G28U, G29A, C54U
B35: target 1 MT 5'PFS UAU 3'PFS CUU (mixed)
RNA 1: B1 RNA 1
RNA 2: B1 RNA 2 with G27U, G28A, G29U, U52C, C53U, C54U
B36: target 1 MT 5'PFS AGU 3'PFS AAA (mixed)
RNA 1: B1 RNA 1
RNA 2: B1 RNA 2 with G27A, G29U, U52A, C53A, C54A
B37: target 1 MT 5'PFS GCC 3'PFS CUG (mixed)
RNA 1: B1 RNA 1
RNA 2: B1 RNA 2 with G28C, G29C, U52C, C53U, C54G
B38: target 1 MT 5'PFS AAC 3'PFS UAC (mixed)
RNA 1: B1 RNA 1
RNA 2: B1 RNA 2 with G27A, G28A, G29C, C53A
B39: target 1 MT 5'PFS UAC 3'PFS CGG (mixed)
RNA 1: B1 RNA 1
RNA 2: B1 RNA 2 with G27U, G28A, G29C, U52C, C53G, C54G
B40: target 1 MT 5'PFS GCA 3'PFS AGU (mixed)
RNA 1: B1 RNA 1
RNA 2: B1 RNA 2 with G28C, G29A, U52A, C53G, C54U

target: T1, EsCas13d, nuclease-dead; experiment: crRNA (strand 1, pre-loaded); Mg2+; 40 mM Tris-HCl pH 7.5, 150 mM NaCl, 6 mM MgCl2, 1 mM DTT, 0.1% Tween-20, 0.2 mg/ml BSA; 25 C; 10 min per concentration, then washed; details: tags: His6-TwinStrep-SUMO cleaved; N-terminal SNAP kept (SNAP-Surface 488); label: 3' end held by stalled T7 RNA polymerase

| Binder | Kd [nM] |
| --- | --- |
| B1 | 28 ± 5 |
| B2 | 22.9 ± 2.2 |
| B3 | 13.2 ± 3.15 |
| B4 | 18 ± 7 |
| B5 | 12.9 ± 0.8 |
| B6 | 23.4 ± 1.85 |
| B7 | 21.1 ± 5.75 |
| B8 | ~25 |
| B9 | 11.4 ± 0.8 |
| B10 | 32 ± 7.5 |
| B11 | 9.45 ± 0.75 |
| B12 | 41 ± 12.5 |
| B13 | 22.5 ± 4.15 |
| B14 | 6.83 ± 0.425 |
| B15 | ~70 |
| B16 | 18.6 ± 5.7 |
| B17 | 67 ± 33 |
| B18 | 14.6 ± 2.1 |
| B19 | 10.7 ± 1.7 |
| B20 | 33 ± 15 |

| Binder | Kd [nM] |
| --- | --- |
| B21 | 21 ± 9 |
| B22 | 38 ± 16 |
| B23 | 13.2 ± 2.8 |
| B24 | 43.5 ± 10 |
| B25 | 31 ± 8 |
| B26 | 22.6 ± 1.7 |
| B27 | 28.7 ± 1.75 |
| B28 | 19.2 ± 6.35 |
| B29 | 15 ± 5.5 |
| B30 | 52 ± 18 |
| B31 | 49 ± 16 |
| B32 | 58.5 ± 7.5 |
| B33 | 55 ± 24 |
| B34 | 4.9 ± 0.7 |
| B35 | 39.5 ± 12.5 |
| B36 | ~100 |
| B37 | 17 ± 6 |
| B38 | 31 ± 13 |
| B39 | 44.5 ± 21 |
| B40 | 23 ± 5 |
